Values belong to the molecule of their own block, whether it stands above or below them.
What was measured:
[1] = molecular target: recombinant RIM1 PDZ-domain (rat RIM1 residues 596-704) (rat) (UniProt Q9JIR4); experiment: ITC
[2] = molecular target: T1, recombinant RIM1 PDZ-domain (rat RIM1 residues 596-704) (rat, UniProt Q9JIR4 596-704, ^15N-labeled (for the HSQC spectra)); experiment: ITC
T1 sequence (looked up): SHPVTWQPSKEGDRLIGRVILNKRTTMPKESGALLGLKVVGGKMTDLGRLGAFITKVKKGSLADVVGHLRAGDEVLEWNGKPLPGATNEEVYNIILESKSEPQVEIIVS

Kd [1]: 23.4 µM
stoichiometry N [1]: 0.93
Molecule: C-terminus of N-type Ca^2+-channels (tested by HSQC and calorimetry) (from UniProt Q00975 1-2339) (domain or fragment)

Kd [2]: 10.3 ± 0.6 µM
stoichiometry N [2]: 0.93
B1: peptide from the C-terminus of the P/Q-type Ca^2+-channel (residues RHDAYSESEDDWC) (peptide)
peptide: RHDAYSESEDDWC

— PMC3063406 (Cell, 2011)
